T1: cynomolgus EpCAM protein (cynomolgus, UniProt Q1WER1 27-265 (rhesus entry), limits assumed, biotinylated in the Octet assays (site not stated))
T1 construct: also called cy EpCAM; biotinylated cynomolgus EpCAM protein
T1 sequence: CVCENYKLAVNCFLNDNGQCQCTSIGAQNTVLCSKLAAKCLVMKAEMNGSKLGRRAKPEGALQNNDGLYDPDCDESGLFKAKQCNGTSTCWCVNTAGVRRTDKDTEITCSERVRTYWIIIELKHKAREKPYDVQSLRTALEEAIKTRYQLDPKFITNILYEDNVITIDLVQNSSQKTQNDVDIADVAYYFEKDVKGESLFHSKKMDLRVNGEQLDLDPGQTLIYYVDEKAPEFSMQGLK

T2: human EpCAM protein (human, UniProt P16422 24-265, biotinylated in the Octet assays (site not stated))
T2 construct: also called hu EpCAM; biotinylated human EpCAM protein
T2 sequence: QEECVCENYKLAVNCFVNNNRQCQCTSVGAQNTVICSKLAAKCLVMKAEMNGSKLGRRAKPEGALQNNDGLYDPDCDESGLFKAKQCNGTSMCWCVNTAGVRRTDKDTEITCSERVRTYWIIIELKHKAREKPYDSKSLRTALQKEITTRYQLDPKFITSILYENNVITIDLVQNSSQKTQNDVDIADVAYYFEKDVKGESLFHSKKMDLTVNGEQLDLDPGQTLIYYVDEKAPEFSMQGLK


Experiments:
Test in all cases: colorimetric ELISA
cynomolgus EpCAM protein = biological target: T1, cynomolgus EpCAM protein
Source text: (§1) A phage display library for expression of heavy variable antibody domains was constructed from circulating B cells. See van der Linden, de Geus, Stok, Bos, van Wassenaar, Verrips, and Frenken. 2000. J Immunol Methods 240:185-195.

human EpCAM protein = biological target: T2, human EpCAM protein
Source text: as §1

[1] = biological target: cynomolgus EpCAM protein (cynomolgus)

Cynomolgus EpCAM/Control (cynomolgus EpCAM protein) | Human EpCAM/Control (human EpCAM protein) | Cynomolgus EpCAM/Control [1] | Binder
31 | 8 |  | EPL86 (VHH) VHH: QVQLQESGGGLVQPGGSLRLSCAASGFTFSDWAMSWVRQAPGKGLEWVSGIHYGDHTTHYADFVKGRFTISRDDAKNTLYLQMNSLKPEDTAVYYCARGSTKGQGTQVTVSS
21 | 31 |  | EPL153 (VHH) VHH: QVQLQESGGGLVQPGGSLRLSCAASGFTFSDWAMSWVRQAPGKGLEWVSSIHYGDHTTHYADFVKGRFTISRDDAKNTLYLQMNSLKPEDTAVYYCEKGTTRGQGTQVTVSS
33 | 10 |  | EPL60 (VHH) VHH: QVQLQESGGGLVQAGGSLRLSCAASEYILSMYRMAWYRQAPGKVRELVADMSSGGTTNYADFVKGRFTISRDNDRNTVYLQMNRLQPEDTAAYYCNVAGRTGPPSYDAFNNWGQGTQVTVSS
17 | 16 |  | EPL156 (VHH) VHH: QVQLQESGGGLVQPGASLRVSCAASEYILSMYRMAWYRQAPGKVRELVADMSSGGTTNYADFVKGRFTISRDNDRNTVYLQMNRLQPEDTAAYYCNVAGRTGPPSYDAFNNWGQGTQVTVSS
 |  | 2 | EPL159 (VHH) VHH: QVQLQESGGGLVQAGGSLRLSCAASGFAFGNHWMYWYRQAPGRGRELVASISSGGSTNYVDSVKGRFTISRDNARNTVYLQMYSLKPEDTAVYYCGTSDNWGQGTQVTVSS
29 | 20 |  | EPL129 (VHH) VHH: QVQLQESGGGLVQAGGSLRLSCAASGFAFGNHWMYWYRQAPGRGRELVASISSGGSTNYVDSVKGRFTISRDNARNTVYLQMYSLRPEDTAVYYCGTSDNWGQGTQVTVSS
23 | 17 |  | EPL13 (VHH) VHH: QVQLQESGGGLVQPGGSLRLSCAASGFAFGNHWMYWYRQAPGRGRELVASISSGGSTNYVDSVKGRFTISRDNARNTVYLQMYSLKPEDTAVYYCGTSDNWGQGTQVTVSS
 | 3 | 2 | EPL145 (VHH) VHH: QVQLQESGGGLVQAGGSLRLSCAASGFIFRAASMGWFRQSPGNERELVATVSSGGFTNYADSVKGRFTISRDNAKNTVYLQMNSLKPEDTAVYFCGATFVRSDGHHTIYGQGTQVTVSS
4 | 6 |  | EPL20 (VHH) VHH: QVQLQESGGGLVQAGGSLKLSCAASGNVFRAATMAWYRQAPEKQREMVATIASGGTTNYADFVKGRFTISRDNAKNTVYLQMNTLKPEDTAVYYCNAGYLTSLGPKNYWGQGTQVTVSS
8 | 8 |  | EPL125 (VHH) VHH: QVQLQESGGGLVQAGGSLRLSCAASGNVFRAATMAWYRQVPEKQREMVATIASGGTTNYADFVKGRFTISRDNAKNTVYLQMNTLKPEDTAVYYCNALYLTSLGPKSYWGQGTQVTVSS
